Data from paper doi:10.1101/2025.09.24.678339.

What was measured:
[1] = target: DNMT3A2 D876A, full-length, purified (human); experiment: SEC
[2] = target: DNMT3A2 D876A, full-length, purified (human); experiment: SEC + other: mass photometry
[3] = target: DNMT3A2 D876A/R882H, full-length, purified (human); experiment: SEC
[4] = target: DNMT3A2 L859F/D876A/R882H, full-length, purified (human); experiment: SEC
[5] = target: DNMT3A2 L859F/R882H, full-length, purified (human); experiment: SEC
[6] = target: DNMT3A2 R882H, full-length, purified (human); experiment: SEC
[7] = target: DNMT3A2 wild type, full-length, purified (human); experiment: SEC
[8] = target: DNMT3A2 wild type, full-length, purified (human); experiment: SEC + other: mass photometry

Substance: DNMT3A2 D876A, full-length, purified (enzyme)
- stoichiometry N [1]: 2
- stoichiometry N [2]: 2

Substance: DNMT3A2 D876A/R882H, full-length, purified (enzyme)
- stoichiometry N [3]: 2

Substance: DNMT3A2 L859F/D876A/R882H, full-length, purified (enzyme)
- stoichiometry N [4]: 2

Substance: DNMT3A2 L859F/R882H, full-length, purified (enzyme)
- stoichiometry N [5]: 4

Substance: DNMT3A2 R882H, full-length, purified (enzyme)
- stoichiometry N [6]: 4

Substance: DNMT3A2 wild type, full-length, purified (enzyme)
- stoichiometry N [7]: 4
- stoichiometry N [8]: 4
